According to patent publication US20230365662A1:
Substitutions are numbered along the chain they refer to. Names may count otherwise. “And” between values parts separate entries of the source, which are not always exact repeats. Equal values may be shown once.

B1: parental mouse (KB001) Fab FASEBA, VL variant S95Y (Fab, V domains shown)
VH: EVQLKQSGPGLVAPSQSLSITCTVSGFSLSIYSVHWVRQPPGKGLEWLGMIWGGGSSDYNSALKSRLSISKDNSKSQVFLKMNSLQTDDTAMYYCARNGNFYAMDYWGQGTSVTVSS
VL: QIVLTQSPAIMSASLGERVTMTCTASSSVSSSFLHWYQQKPGSSPQLWIYSTSNLASGVPARFSGSGSGTSYSLTISSMEAEDAATYYCHQYHHYPYIYTFGGGTKLEIK
B2: parental mouse (KB001) Fab FASEBA, VL variant Y97H (Fab, V domains shown)
VH: B1 VH
VL: B1 VL with Y95S, Y97H
B3: parental mouse (KB001) Fab FASEBA, VL variant I98R (Fab, V domains shown)
VH: B1 VH
VL: B1 VL with Y95S, I98R
B4: parental mouse (KB001) Fab FASEBA, VL variant Y97F (Fab, V domains shown)
VH: B1 VH
VL: B1 VL with Y95S, Y97F
B5: parental mouse (KB001) Fab FASEBA, VL variant Y97R (Fab, V domains shown)
VH: B1 VH
VL: B1 VL with Y95S, Y97R
B6: parental mouse (KB001) Fab FASEBA, VL variant Y97Q (Fab, V domains shown)
VH: B1 VH
VL: B1 VL with Y95S, Y97Q
B7: parental mouse (KB001) Fab FASEBA, VL variant I98V (Fab, V domains shown)
VH: B1 VH
VL: B1 VL with Y95S, I98V
B8: parental mouse (KB001) Fab FASEBA, VL variant T100I (Fab, V domains shown)
VH: B1 VH
VL: B1 VL with Y95S, T100I
B9: parental mouse (KB001) Fab FASEBA, VL variant T100P (Fab, V domains shown)
VH: B1 VH
VL: B1 VL with Y95S, T100P
B10: parental mouse (KB001) Fab FASEBA, VL variant Y97S (Fab, V domains shown)
VH: B1 VH
VL: B1 VL with Y95S, Y97S
B11: parental mouse (KB001) Fab FASEBA, VL variant Y97I (Fab, V domains shown)
VH: B1 VH
VL: B1 VL with Y95S, Y97I
B12: parental mouse (KB001) Fab FASEBA, VL variant Y97K (Fab, V domains shown)
VH: B1 VH
VL: B1 VL with Y95S, Y97K
B13: parental mouse (KB001) Fab FASEBA, VL variant Y97V (Fab, V domains shown)
VH: B1 VH
VL: B1 VL with Y95S, Y97V
B14: parental mouse (KB001) Fab FASEBA, VL variant S95C (Fab, V domains shown)
VH: B1 VH
VL: B1 VL with Y95C
B15: parental mouse (KB001) Fab FASEBA, VL variant Y97L (Fab, V domains shown)
VH: B1 VH
VL: B1 VL with Y95S, Y97L
B16: parental mouse (KB001) Fab FASEBA, VL variant I98M (Fab, V domains shown)
VH: B1 VH
VL: B1 VL with Y95S, I98M
B17: parental mouse (KB001) Fab FASEBA, VL variant I98L (Fab, V domains shown)
VH: B1 VH
VL: B1 VL with Y95S, I98L
B18: parental mouse (KB001) Fab FASEBA, VL variant T100V (Fab, V domains shown)
VH: B1 VH
VL: B1 VL with Y95S, T100V
B19: KB001 parental mouse Fab VH variant S65H (Fab, V domains shown)
VH: B1 VH with S65H
VL: B1 VL with Y95S
B20: KB001 parental mouse Fab VH variant G99A (Fab, V domains shown)
VH: B1 VH with G99A
VL: B1 VL with Y95S
B21: KB001 parental mouse Fab VH variant N100P (Fab, V domains shown)
VH: B1 VH with N100P
VL: B1 VL with Y95S
B22: KB001 parental mouse Fab VH variant G99Y (Fab, V domains shown)
VH: B1 VH with G99Y
VL: B1 VL with Y95S
B23: KB001 parental mouse Fab VH variant S65T (Fab, V domains shown)
VH: B1 VH with S65T
VL: B1 VL with Y95S
B24: KB001 parental mouse Fab VH variant N100I (Fab, V domains shown)
VH: B1 VH with N100I
VL: B1 VL with Y95S
B25: KB001 parental mouse Fab VH variant K64G (Fab, V domains shown)
VH: B1 VH with K64G
VL: B1 VL with Y95S
B26: KB001 parental mouse Fab VH variant K64M (Fab, V domains shown)
VH: B1 VH with K64M
VL: B1 VL with Y95S
B27: KB001 parental mouse Fab VH variant S65P (Fab, V domains shown)
VH: B1 VH with S65P
VL: B1 VL with Y95S
B28: KB001 parental mouse Fab VH variant S65G (Fab, V domains shown)
VH: B1 VH with S65G
VL: B1 VL with Y95S
B29: KB001 parental mouse Fab VH variant S65R (Fab, V domains shown)
VH: B1 VH with S65R
VL: B1 VL with Y95S
B30: KB001 parental mouse Fab VH variant G99F (Fab, V domains shown)
VH: B1 VH with G99F
VL: B1 VL with Y95S
B31: KB001 parental mouse Fab VH variant K64D (Fab, V domains shown)
VH: B1 VH with K64D
VL: B1 VL with Y95S
B32: KB001 parental mouse Fab VH variant K64L (Fab, V domains shown)
VH: B1 VH with K64L
VL: B1 VL with Y95S
B33: KB001 parental mouse Fab VH variant G99N (Fab, V domains shown)
VH: B1 VH with G99N
VL: B1 VL with Y95S
B34: KB001 parental mouse Fab VH variant S65F (Fab, V domains shown)
VH: B1 VH with S65F
VL: B1 VL with Y95S
B35: KB001 parental mouse Fab VH variant K64E (Fab, V domains shown)
VH: B1 VH with K64E
VL: B1 VL with Y95S
B36: KB001 parental mouse Fab VH variant S65L (Fab, V domains shown)
VH: B1 VH with S65L
VL: B1 VL with Y95S
B37: KB001 parental mouse Fab VH variant G99C (Fab, V domains shown)
VH: B1 VH with G99C
VL: B1 VL with Y95S
B38: KB001 parental mouse Fab VH variant K64Q (Fab, V domains shown)
VH: B1 VH with K64Q
VL: B1 VL with Y95S
B39: KB001 parental mouse Fab VH variant G99S (Fab, V domains shown)
VH: B1 VH with G99S
VL: B1 VL with Y95S
B40: KB001 parental mouse Fab VH variant S65Y (Fab, V domains shown)
VH: B1 VH with S65Y
VL: B1 VL with Y95S
B41: KB001 parental mouse Fab VH variant K64H (Fab, V domains shown)
VH: B1 VH with K64H
VL: B1 VL with Y95S

Each binder was assayed against HRgpA-6H (Porphyromonas gingivalis) (UniProt P28784) (assay: ELISA, Fab FASEBA supernatant on coated HRgpA-6H).
Chain of UniProt P28784 (P28784 228-991 limits assumed): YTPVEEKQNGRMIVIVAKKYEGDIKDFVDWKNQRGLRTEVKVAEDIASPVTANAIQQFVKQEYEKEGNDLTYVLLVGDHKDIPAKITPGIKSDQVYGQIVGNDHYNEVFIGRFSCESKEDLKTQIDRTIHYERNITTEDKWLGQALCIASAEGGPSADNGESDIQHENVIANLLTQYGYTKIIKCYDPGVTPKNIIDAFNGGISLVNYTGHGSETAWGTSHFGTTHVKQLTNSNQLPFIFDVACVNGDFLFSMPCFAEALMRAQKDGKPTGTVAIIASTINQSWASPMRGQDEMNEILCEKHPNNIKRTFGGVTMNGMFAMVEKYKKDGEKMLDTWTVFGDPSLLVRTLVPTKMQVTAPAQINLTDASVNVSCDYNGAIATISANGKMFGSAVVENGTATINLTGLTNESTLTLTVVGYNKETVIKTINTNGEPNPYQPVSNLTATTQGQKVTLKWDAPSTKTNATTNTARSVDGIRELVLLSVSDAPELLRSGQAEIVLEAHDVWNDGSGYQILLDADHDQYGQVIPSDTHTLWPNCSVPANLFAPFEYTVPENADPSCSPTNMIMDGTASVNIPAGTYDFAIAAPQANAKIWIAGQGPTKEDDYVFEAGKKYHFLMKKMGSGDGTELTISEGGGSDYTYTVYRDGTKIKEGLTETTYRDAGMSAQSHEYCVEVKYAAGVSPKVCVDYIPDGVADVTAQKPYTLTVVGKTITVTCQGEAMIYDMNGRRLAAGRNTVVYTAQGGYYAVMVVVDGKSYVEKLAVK

Binder | OD450nm | Ratio OD(Variant)/OD(WT)
B1 | 0.827 OD450nm | 0.9 ratio to WT
B2 | 0.775 OD450nm | 0.982 ratio to WT
B3 | 0.726 OD450nm and 0.722 OD450nm | 0.83 ratio to WT and 0.825 ratio to WT
B4 | 0.75 OD450nm and 0.756 OD450nm | 0.951 ratio to WT and 0.958 ratio to WT
B5 | 0.769 OD450nm | 0.975 ratio to WT
B6 | 0.687 OD450nm | 0.871 ratio to WT
B7 | 0.832 OD450nm and 0.838 OD450nm and 0.787 OD450nm | 0.951 ratio to WT and 0.958 ratio to WT and 0.899 ratio to WT
B8 | 0.493 OD450nm | 0.942 ratio to WT
B9 | 0.46 OD450nm | 0.879 ratio to WT
B10 | 0.633 OD450nm | 0.802 ratio to WT
B11 | 0.667 OD450nm | 0.845 ratio to WT
B12 | 0.654 OD450nm | 0.829 ratio to WT
B13 | 0.662 OD450nm | 0.839 ratio to WT
B14 | 0.849 OD450nm | 0.924 ratio to WT
B15 | 0.739 OD450nm | 0.937 ratio to WT
B16 | 0.729 OD450nm | 0.833 ratio to WT
B17 | 0.836 OD450nm | 0.955 ratio to WT
B18 | 0.461 OD450nm and 0.428 OD450nm | 0.881 ratio to WT and 0.818 ratio to WT

These binders were tested against HRgpA-6H (Porphyromonas gingivalis) (UniProt P28784) (assay: ELISA, Fab FASEBA supernatant on coated HRgpA-6H (0.0625 ug/ml)).

Binder | OD450nm | Ratio OD(Variant)/OD(WT)
B19 | 0.823 and 0.767 | 0.995 and 0.927
B20 | 0.74 | 0.928
B21 | 0.757 | 0.894
B22 | 0.769 | 0.965
B23 | 0.759 | 0.918
B24 | 0.796 and 0.833 | 0.94 and 0.983
B25 | 0.811 | 0.981
B26 | 0.784 | 0.948
B27 | 0.814 | 0.984
B28 | 0.825 | 0.998
B29 | 0.794 | 0.96
B30 | 0.771 | 0.967
B31 | 0.781 | 0.944
B32 | 0.664 | 0.803
B33 | 0.639 and 0.698 | 0.802 and 0.876
B34 | 0.74 | 0.895
B35 | 0.789 | 0.954
B36 | 0.728 | 0.88
B37 | 0.776 | 0.974
B38 | 0.789 | 0.954
B39 | 0.769 and 0.739 and 0.77 | 0.965 and 0.927 and 0.966
B40 | 0.724 | 0.875
B41 | 0.788 and 0.806 and 0.73 | 0.953 and 0.975 and 0.883
